Test results published in publication doi:10.1101/390104 (bioRxiv, 2018).

These binders were tested against T1, MalE (E. coli, UniProt P0AEX9 27-396 = MBP) (assay: NMR).

Binder | binding result
HdeA-16-fluoro (natural protein, 5-fluorotryptophan at 16) ADAQKAADNKKPVNSWTCEDFLAVDESFQPTAVGFAEALNNKDKPEDAVLDVQGIATVTPAIVQACTQDKQANFKDKVKGEFDKIKKDM | binds
HdeA-82-fluoro (natural protein, 5-fluorotryptophan at 82) ADAQKAADNKKPVNSFTCEDFLAVDESFQPTAVGFAEALNNKDKPEDAVLDVQGIATVTPAIVQACTQDKQANFKDKVKGEWDKIKKDM | binds
HdeA-F28W mutant (natural protein) ADAQKAADNKKPVNSWTCEDFLAVDESWQPTAVGFAEALNNKDKPEDAVLDVQGIATVTPAIVQACTQDKQANFKDKVKGEWDKIKKDM | binds

These binders were tested against T1, MalE (assay: 19F NMR).

Binder | binding result
HdeA mutant with 19F probe incorporated at site 7 (natural protein, 5-fluorotryptophan at 7) ADAQKAWDNKKPVNSFTCEDFLAVDESFQPTAVGFAEALNNKDKPEDAVLDVQGIATVTPAIVQACTQDKQANFKDKVKGEFDKIKKDM | binds
HdeA mutant with 19F probe incorporated at site 24 (natural protein, 5-fluorotryptophan at 24) ADAQKAADNKKPVNSFTCEDFLAWDESFQPTAVGFAEALNNKDKPEDAVLDVQGIATVTPAIVQACTQDKQANFKDKVKGEFDKIKKDM | binds
HdeA mutant with 19F probe incorporated at site 28 (natural protein, 5-fluorotryptophan at 28) ADAQKAADNKKPVNSFTCEDFLAVDESWQPTAVGFAEALNNKDKPEDAVLDVQGIATVTPAIVQACTQDKQANFKDKVKGEFDKIKKDM | binds
HdeA mutant with 19F probe incorporated at site 35 (natural protein, 5-fluorotryptophan at 35) ADAQKAADNKKPVNSFTCEDFLAVDESFQPTAVGWAEALNNKDKPEDAVLDVQGIATVTPAIVQACTQDKQANFKDKVKGEFDKIKKDM | binds
HdeA mutant with 19F probe incorporated at site 49 (natural protein, 5-fluorotryptophan at 49) ADAQKAADNKKPVNSFTCEDFLAVDESFQPTAVGFAEALNNKDKPEDAWLDVQGIATVTPAIVQACTQDKQANFKDKVKGEFDKIKKDM | binds
HdeA mutant with 19F probe incorporated at site 55 (natural protein, 5-fluorotryptophan at 55) ADAQKAADNKKPVNSFTCEDFLAVDESFQPTAVGFAEALNNKDKPEDAVLDVQGWATVTPAIVQACTQDKQANFKDKVKGEFDKIKKDM | binds
HdeA mutant with 19F probe incorporated at site 63 (natural protein, 5-fluorotryptophan at 63) ADAQKAADNKKPVNSFTCEDFLAVDESFQPTAVGFAEALNNKDKPEDAVLDVQGIATVTPAIWQACTQDKQANFKDKVKGEFDKIKKDM | binds
HdeA mutant with 19F probe incorporated at site 78 (natural protein, 5-fluorotryptophan at 78) ADAQKAADNKKPVNSFTCEDFLAVDESFQPTAVGFAEALNNKDKPEDAVLDVQGIATVTPAIVQACTQDKQANFKDKWKGEFDKIKKDM | binds

Each binder was assayed against T1, MalE (assay: ITC).

Binder | stoichiometry N
wild type HdeA (natural protein, E. coli, UniProt P0AES9 22-110, looked up) ADAQKAADNKKPVNSWTCEDFLAVDESFQPTAVGFAEALNNKDKPEDAVLDVQGIATVTPAIVQACTQDKQANFKDKVKGEWDKIKKDM | ~0.5

Target: the molecule itself
Assay: NMR

Binder | binding result
wild type HdeA (natural protein, E. coli, UniProt P0AES9 22-110, looked up) ADAQKAADNKKPVNSWTCEDFLAVDESFQPTAVGFAEALNNKDKPEDAVLDVQGIATVTPAIVQACTQDKQANFKDKVKGEWDKIKKDM | binds
